Changes are numbered by the printed parent chain.

Data set [1] deals with Prp24 (EMSA, wild type);Lsm2-8 mostly wild type (Saccharomyces cerevisiae;Saccharomyces cerevisiae) (UniProt P38203+P57743+P40070+P40089+Q06406+P53905+P47093). Kind of data set: EMSA. The following applies: Lsm2-8 titrated onto U6 pre-bound with 20 nM Prp24; FP: 50 mM KCl or as listed 100 mM KCl in both 2x buffers, HEPES (10 mM acid + 10 mM Na salt), 10% glycerol, 1 mM TCEP, tRNA, heparin, BSA, 0.3 nM FAM-RNA …. Background: A gel shift assay detects complexes by their altered migration in electrophoresis.
Chain of Prp24 (EMSA, wild type);Lsm2-8 mostly wild type (Saccharomyces cerevisiae;Saccharomyces cerevisiae) (P40070 whole entry, looked up, one chain of several): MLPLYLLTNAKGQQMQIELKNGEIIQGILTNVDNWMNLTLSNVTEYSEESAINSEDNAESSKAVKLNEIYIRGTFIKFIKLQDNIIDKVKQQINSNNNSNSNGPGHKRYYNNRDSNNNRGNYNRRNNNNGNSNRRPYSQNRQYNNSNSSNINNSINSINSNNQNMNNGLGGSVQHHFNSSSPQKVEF

In data set [2] the target is Prp24-8Asub;Lsm2-8 mostly wild type (Saccharomyces cerevisiae;Saccharomyces cerevisiae) (UniProt P38203+P57743+P40070+P40089+Q06406+P53905+P47093). The data set can be described thus: EMSA. The following applies: Lsm2-8 titrated onto U6 pre-bound with 20 nM Prp24-8Asub; FP: 50 mM KCl or as listed 100 mM KCl in both 2x buffers, HEPES (10 mM acid + 10 mM Na salt), 10% glycerol, 1 mM TCEP, tRNA, heparin, BSA, 0.3 nM FAM-RNA ….
Chain of Prp24-8Asub;Lsm2-8 mostly wild type (Saccharomyces cerevisiae;Saccharomyces cerevisiae) (P40070 whole entry, looked up, one chain of several): as above

A further data set has as its target T1, Lsm2-8 Lsm3-R21E (Saccharomyces cerevisiae, UniProt P38203;P57743;P40070;P40089;Q06406;P53905;P47093 …, R21E).
T1 sequence 1: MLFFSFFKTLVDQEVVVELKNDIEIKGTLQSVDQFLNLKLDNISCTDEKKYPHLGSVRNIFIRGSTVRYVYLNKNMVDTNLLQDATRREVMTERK
T1 sequence 2: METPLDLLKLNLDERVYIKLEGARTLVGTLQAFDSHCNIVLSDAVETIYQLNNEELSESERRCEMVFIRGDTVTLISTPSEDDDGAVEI
T1 sequence 3: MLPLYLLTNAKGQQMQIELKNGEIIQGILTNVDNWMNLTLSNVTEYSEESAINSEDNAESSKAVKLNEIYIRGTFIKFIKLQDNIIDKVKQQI
T1 sequence 4: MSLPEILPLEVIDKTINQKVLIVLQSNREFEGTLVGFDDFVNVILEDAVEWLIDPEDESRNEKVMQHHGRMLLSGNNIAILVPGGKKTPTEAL
T1 sequence 5: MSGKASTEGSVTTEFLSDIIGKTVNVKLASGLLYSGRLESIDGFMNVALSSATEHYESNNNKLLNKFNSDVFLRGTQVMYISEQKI
T1 sequence 6: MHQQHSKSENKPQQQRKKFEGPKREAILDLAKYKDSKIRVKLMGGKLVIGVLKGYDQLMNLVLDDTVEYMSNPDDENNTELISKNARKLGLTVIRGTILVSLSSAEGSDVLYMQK
T1 sequence 7: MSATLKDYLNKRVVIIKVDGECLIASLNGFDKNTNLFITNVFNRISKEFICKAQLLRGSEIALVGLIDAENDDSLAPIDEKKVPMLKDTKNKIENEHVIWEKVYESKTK
Kind of data set: fluorescence polarization; FP: 50 mM KCl or as listed 100 mM KCl in both 2x buffers, HEPES (10 mM acid + 10 mM Na salt), 10% glycerol, 1 mM TCEP, tRNA, heparin, BSA, 0.3 nM FAM-RNA; EMSA: 100 mM KCl, 20% sucrose, 20 mM bis-tris/10 mM HCl pH ~6.5, 1 mM EDTA, 1 mM TCEP, 0.01% Triton X-100, tRNA, heparin, BSA, room temperature, gel at 4 C. The note with it: protein: recombinant; tags: as P1; copies: 1;1;1;1;1;1;1; label: 5'-FAM; single strand. For orientation: Fluorescence polarisation rises when a labelled molecule tumbles more slowly, as on binding a larger partner.

A further data set concerns the target T2, Lsm2-8 Lsm2-K20A (Saccharomyces cerevisiae, UniProt P38203;P57743;P40070;P40089;Q06406;P53905;P47093 …, K20A).
T2 sequence 1: T1 sequence 1 with K20A
T2 sequence 2: T1 sequence 2 with E21R
T2 sequence 3: T1 sequence 3
T2 sequence 4: T1 sequence 4
T2 sequence 5: T1 sequence 5
T2 sequence 6: T1 sequence 6
T2 sequence 7: T1 sequence 7
The description is as above. The following applies: protein: recombinant; tags: as P1; copies: 1;1;1;1;1;1;1; label: 5'-FAM; single strand.

A further data set addresses T3, Lsm2-8 Lsm3-R21A (Saccharomyces cerevisiae, UniProt P38203;P57743;P40070;P40089;Q06406;P53905;P47093 …, R21A).
T3 sequence 1: T1 sequence 1
T3 sequence 2: T1 sequence 2 with E21A
T3 sequence 3: T1 sequence 3
T3 sequence 4: T1 sequence 4
T3 sequence 5: T1 sequence 5
T3 sequence 6: T1 sequence 6
T3 sequence 7: T1 sequence 7
Described as above. The note with it: protein: recombinant; tags: as P1; copies: 1;1;1;1;1;1;1; label: 5'-FAM; single strand.

A further data set addresses T4, Lsm2-8 Lsm2-K20E (Saccharomyces cerevisiae, UniProt P38203;P57743;P40070;P40089;Q06406;P53905;P47093 …, K20E).
T4 sequence 1: T1 sequence 1 with K20E
T4 sequence 2: T1 sequence 2 with E21R
T4 sequence 3: T1 sequence 3
T4 sequence 4: T1 sequence 4
T4 sequence 5: T1 sequence 5
T4 sequence 6: T1 sequence 6
T4 sequence 7: T1 sequence 7
The description is as above. The following applies: protein: recombinant; tags: as P1; copies: 1;1;1;1;1;1;1; label: 5'-FAM; single strand.

The target in another data set is T5, Lsm2-8 Lsm8-delC (Saccharomyces cerevisiae, UniProt P38203;P57743;P40070;P40089;Q06406;P53905;P47093 …).
T5 sequence 1: T1 sequence 1
T5 sequence 2: T1 sequence 2 with E21R
T5 sequence 3: T1 sequence 3
T5 sequence 4: T1 sequence 4
T5 sequence 5: T1 sequence 5
T5 sequence 6: T1 sequence 6
T5 sequence 7: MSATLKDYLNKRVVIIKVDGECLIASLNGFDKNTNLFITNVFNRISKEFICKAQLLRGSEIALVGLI
The description is as above. The following applies: protein: recombinant; tags: as P1; copies: 1;1;1;1;1;1;1; label: 5'-FAM; single strand.

The target in another data set is T6, Lsm2-8 construct 2 (WT) (Saccharomyces cerevisiae, UniProt P38203;P57743;P40070;P40089;Q06406;P53905;P47093 …).
T6 sequence 1: T1 sequence 1
T6 sequence 2: T1 sequence 2 with E21R
T6 sequence 3: T1 sequence 3
T6 sequence 4: T1 sequence 4
T6 sequence 5: T1 sequence 5
T6 sequence 6: T1 sequence 6
T6 sequence 7: T1 sequence 7
Described as above. The following applies: protein: recombinant; tags: Lsm8 C-terminal His6 (non-cleavable); Lsm3 C-terminal StrepII (non-cleavable); MBP on Lsm6 (TEV-labile); copies: 1;1;1;1;1;1;1; label: 5'-FAM; single strand.

Data set [3] addresses Prp24-8Asub (eight RRM4 residues at the Lsm2 interface substituted with alanine) (S. cerevisiae) (UniProt P49960).
For data set [4], the target named is T7, Prp24-8Asub (eight RRM4 residues at the Lsm2 interface substituted with alanine) (S. cerevisiae, UniProt P49960 1-444, D361A | S362A | K363A | K367A | L369A | M370A | I371A | N373A).
T7 sequence: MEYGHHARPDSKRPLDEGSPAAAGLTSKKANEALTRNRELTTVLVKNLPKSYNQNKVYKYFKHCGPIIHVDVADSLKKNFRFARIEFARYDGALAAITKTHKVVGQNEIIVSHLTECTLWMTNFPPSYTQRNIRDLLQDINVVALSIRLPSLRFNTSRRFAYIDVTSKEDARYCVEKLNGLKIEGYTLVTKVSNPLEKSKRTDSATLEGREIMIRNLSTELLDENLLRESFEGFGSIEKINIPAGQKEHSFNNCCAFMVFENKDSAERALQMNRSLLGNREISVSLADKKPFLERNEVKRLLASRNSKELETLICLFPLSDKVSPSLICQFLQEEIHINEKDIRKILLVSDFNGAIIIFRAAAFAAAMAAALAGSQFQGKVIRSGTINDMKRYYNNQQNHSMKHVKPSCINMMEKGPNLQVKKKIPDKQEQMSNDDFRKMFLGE
Kind of data set: EMSA; Prp24-8Asub pre-bound to U6 RNA (U6/Prp24 complex).

The target of data set [5] is Prp24-8Asub (eight RRM4 residues at the Lsm2 interface substituted with alanine) (S. cerevisiae) (UniProt P49960). Kind of data set: native gel or EMSA; different amounts of Lsm2–8 added to 0.5 nM Cy3-U6 1–112 pre-incubated 20 min with 20 nM Prp24; 100 mM KCl, bis-tris pH ~6.5, room temperature; 6% native polyacrylamide gel at 4 °C; Hill fit, average of three technical replicates.

Data set [6] deals with T8, wild-type Prp24 for electrophoretic mobility shift assays (TEV-labile N-terminal polyhistidine tag removed) (S. cerevisiae, UniProt P49960 1-444).
T8 chain: T7 sequence with A361D, A362S, A363K, A367K, A369L, A370M, A371I, A373N
Kind of data set: EMSA; Prp24 pre-bound to U6 RNA (U6/Prp24 complex).

For the molecule Cy3-U6 1-112, the Kd (usually the concentration at which binding is half-saturated) in data set [1] was found to be 2.8 nM; in data set [2], 5.7 nM.

As for UUUCGUUUUU (ssRNA, 3' phosphate) [U6 104-113 3' phosphate], the Kd with Lsm2-8 Lsm3-R21E was determined as 1150 ± 190 nM; with Lsm2-8 Lsm2-K20A, 841 ± 89 nM; in the data set with Lsm2-8 Lsm3-R21A, 123 ± 12 nM; in the data set with Lsm2-8 Lsm2-K20E, 2320 ± 450 nM; with Lsm2-8 Lsm8-delC it was 502 ± 47 nM; with Lsm2-8 construct 2 (WT) it was 6.13 ± 0.87 nM.

B1: Lsm2–8 heteroheptameric ring, "mostly wild type" construct (complex)
chain 1: MGSMLFFSFFKTLVDQEVVVELKNDIEIKGTLQSVDQFLNLKLDNISCTDEKKYPHLGSVRNIFIRGSTVRYVYLNKNMVDTNLLQDATRREVMTERK
chain 2: MGSMETPLDLLKLNLDERVYIKLRGARTLVGTLQAFDSHCNIVLSDAVETIYQLNNEELSESERRCEMVFIRGDTVTLISTPSEDDDGAVEI
chain 3: MGSMLPLYLLTNAKGQQMQIELKNGEIIQGILTNVDNWMNLTLSNVTEYSEESAINSEDNAESSKAVKLNEIYIRGTFIKFIKLQDNIIDKVKQQI
chain 4: MGSMSLPEILPLEVIDKTINQKVLIVLQSNREFEGTLVGFDDFVNVILEDAVEWLIDPEDESRNEKVMQHHGRMLLSGNNIAILVPGGKKTPTEAL
chain 5: GSMSGKASTEGSVTTEFLSDIIGKTVNVKLASGLLYSGRLESIDGFMNVALSSATEHYESNNNKLLNKFNSDVFLRGTQVMYISEQKI
chain 6: MGSMHQQHSKSENKPQQQRKKFEGPKREAILDLAKYKDSKIRVKLMGGKLVIGVLKGYDQLMNLVLDDTVEYMSNPDDENNTELISKNARKLGLTVIRGTILVSLSSAEGSDVLYMQK
chain 7: GSMSATLKDYLNKRVVIIKVDGECLIASLNGFDKNTNLFITNVFNRISKEFICKAQLLRGSEIALVGLIDAENDDSLAPIDEKKVPMLKDTKNKIENEHVIWEKVYESKTK
Turning to B1, the rate of in vitro annealing of U4 and U6 with Prp24-8Asub in place of wild-type Prp24 (50 nM Prp24/50 nM Lsm2–8) in data set [3] was determined as 2 fold slower. The values for the Kd in [4] and in data set [6] were 5.7 nM and 2.8 nM, respectively. The same molecule registered a fold reduction of affinity against wild-type Prp24 (U6•Prp24 complex) in [5] of 2 fold.

UUUCGUUUUU (ssRNA, none (3' phosphate removed with CIP)) [U6 104-113 2',3'-cis diol]: the Kd in the data set with Lsm2-8 Lsm3-R21E was 195 ± 27 nM; with Lsm2-8 Lsm2-K20A it was 522 ± 48 nM; in the data set with Lsm2-8 Lsm3-R21A, 40.8 ± 3.3 nM; with Lsm2-8 Lsm2-K20E, 1870 ± 370 nM; in the data set with Lsm2-8 Lsm8-delC it was 277 ± 32 nM; with Lsm2-8 construct 2 (WT), 37.4 ± 4.5 nM.

For the origin of these results see publication PMC5931518, “Architecture of the U6 snRNP reveals specific recognition of 3′-end processed U6 snRNA”.
